According to patent US20180155451A1 (published 2018):

B1: GpH7-A5/GpH7-B3 variant I336_02A/GpL16-k0 (antibody, human IgG1, kappa)
heavy 1: not shown
heavy 2: not shown
light: DIVMTQSPLSLPVTPGEPASISCQASESLVHSNRNTYLHWYLQKPGQSPQLLIYKVSNRFSGVPDRFSGSGSGTDFTLKISRVEAEDVGVYYCSQNTHVPPTFGQGTKVEIERTVAAPSVFIFPPSDEQLKSGTASVVCLLNNFYPREAKVQWKVDNALQSGNSQESVTEQDSKDSTYSLSSTLTLSKADYEKHKVYACEVTHQGLSSPVTKSFNRGEC
notes: heterodimerized; also called He Ab I336_02A
B2: GpH7-A5/GpH7-B3 variant E269_16H/GpL16-k0 (antibody, human IgG1, kappa)
heavy 1: not shown
heavy 2: not shown
light: B1 light
notes: heterodimerized; also called He Ab E269_16H
B3: GpH7-A5/GpH7-B3 variant I336_06M/GpL16-k0 (antibody, human IgG1, kappa)
heavy 1: not shown
heavy 2: not shown
light: B1 light
notes: heterodimerized; also called He Ab I336_06M
B4: GpH7-A5/GpH7-B3 variant G236_20W/GpL16-k0 (antibody, human IgG1, kappa)
heavy 1: not shown
heavy 2: not shown
light: B1 light
notes: heterodimerized; also called He Ab G236_20W; GpH7-A5/GpH7-B3-03-20W/GpL16-k0
B5: GpH7-A5/GpH7-B3 variant E333_07I/GpL16-k0 (antibody, human IgG1, kappa)
heavy 1: not shown
heavy 2: not shown
light: B1 light
notes: heterodimerized; also called He Ab E333_07I
B6: GpH7-A5/GpH7-B3 variant K326_18N/GpL16-k0 (antibody, human IgG1, kappa)
heavy 1: not shown
heavy 2: not shown
light: B1 light
notes: heterodimerized; also called He Ab K326_18N
B7: GpH7-A5/GpH7-B3 variant E333_01G/GpL16-k0 (antibody, human IgG1, kappa)
heavy 1: not shown
heavy 2: not shown
light: B1 light
notes: heterodimerized; also called He Ab E333_01G
B8: GpH7-A5/GpH7-B3 variant L328_14T/GpL16-k0 (antibody, human IgG1, kappa)
heavy 1: not shown
heavy 2: not shown
light: B1 light
notes: heterodimerized; also called He Ab L328_14T
B9: GpH7-A5/GpH7-B3 variant K334_06M/GpL16-k0 (antibody, human IgG1, kappa)
heavy 1: not shown
heavy 2: not shown
light: B1 light
notes: heterodimerized; also called He Ab K334_06M
B10: GpH7-A5/GpH7-B3 variant L234_06M/GpL16-k0 (antibody, human IgG1, kappa)
heavy 1: not shown
heavy 2: not shown
light: B1 light
notes: heterodimerized; also called He Ab L234_06M
B11: GpH7-A5/GpH7-B3 variant E333_15Y/GpL16-k0 (antibody, human IgG1, kappa)
heavy 1: not shown
heavy 2: not shown
light: B1 light
notes: heterodimerized; also called He Ab E333_15Y
B12: GpH7-A5/GpH7-B3 variant I336_10E/GpL16-k0 (antibody, human IgG1, kappa)
heavy 1: not shown
heavy 2: not shown
light: B1 light
notes: heterodimerized; also called He Ab I336_10E
B13: GpH7-A5/GpH7-B3 variant I336_18N/GpL16-k0 (antibody, human IgG1, kappa)
heavy 1: not shown
heavy 2: not shown
light: B1 light
notes: heterodimerized; also called He Ab I336_18N
B14: GpH7-A5/GpH7-B3 variant E269_20W/GpL16-k0 (antibody, human IgG1, kappa)
heavy 1: not shown
heavy 2: not shown
light: B1 light
notes: heterodimerized; also called He Ab E269_20W
B15: GpH7-A5/GpH7-B3 variant H268_08L/GpL16-k0 (antibody, human IgG1, kappa)
heavy 1: not shown
heavy 2: not shown
light: B1 light
notes: heterodimerized; also called He Ab H268_08L
B16: GpH7-A5/GpH7-B3 variant K326_15Y/GpL16-k0 (antibody, human IgG1, kappa)
heavy 1: not shown
heavy 2: not shown
light: B1 light
notes: heterodimerized; also called He Ab K326_15Y
B17: GpH7-A5/GpH7-B3 variant K326_14T/GpL16-k0 (antibody, human IgG1, kappa)
heavy 1: not shown
heavy 2: not shown
light: B1 light
notes: heterodimerized; also called He Ab K326_14T
B18: GpH7-A5/GpH7-B3 variant I336_04F/GpL16-k0 (antibody, human IgG1, kappa)
heavy 1: not shown
heavy 2: not shown
light: B1 light
notes: heterodimerized; also called He Ab I336_04F
B19: GpH7-A5/GpH7-B3 variant L234_15Y/GpL16-k0 (antibody, human IgG1, kappa)
heavy 1: not shown
heavy 2: not shown
light: B1 light
notes: heterodimerized; also called He Ab L234_15Y; GpH7-A5/GpH7-B3-01-15Y/GpL16-k0
B20: GpH7-A5/GpH7-B3 variant K334_12R/GpL16-k0 (antibody, human IgG1, kappa)
heavy 1: not shown
heavy 2: not shown
light: B1 light
notes: heterodimerized; also called He Ab K334_12R
B21: GpH7-A5/GpH7-B3 variant L328_19Q/GpL16-k0 (antibody, human IgG1, kappa)
heavy 1: not shown
heavy 2: not shown
light: B1 light
notes: heterodimerized; also called He Ab L328_19Q
B22: GpH7-A5/GpH7-B3 variant H268_12R/GpL16-k0 (antibody, human IgG1, kappa)
heavy 1: not shown
heavy 2: not shown
light: B1 light
notes: heterodimerized; also called He Ab H268_12R
B23: GpH7-A5/GpH7-B3 variant E333_09D/GpL16-k0 (antibody, human IgG1, kappa)
heavy 1: not shown
heavy 2: not shown
light: B1 light
notes: heterodimerized; also called He Ab E333_09D
B24: GpH7-A5/GpH7-B3 variant E333_14T/GpL16-k0 (antibody, human IgG1, kappa)
heavy 1: not shown
heavy 2: not shown
light: B1 light
notes: heterodimerized; also called He Ab E333_14T
B25: GpH7-A5/GpH7-B3 variant L328_20W/GpL16-k0 (antibody, human IgG1, kappa)
heavy 1: not shown
heavy 2: not shown
light: B1 light
notes: heterodimerized; also called He Ab L328_20W
B26: GpH7-A5/GpH7-B3 variant H268_20W/GpL16-k0 (antibody, human IgG1, kappa)
heavy 1: not shown
heavy 2: not shown
light: B1 light
notes: heterodimerized; also called He Ab H268_20W
B27: GpH7-A5/GpH7-B3 variant E269_18N/GpL16-k0 (antibody, human IgG1, kappa)
heavy 1: not shown
heavy 2: not shown
light: B1 light
notes: heterodimerized; also called He Ab E269_18N
B28: GpH7-A5/GpH7-B3 variant H268_05P/GpL16-k0 (antibody, human IgG1, kappa)
heavy 1: not shown
heavy 2: not shown
light: B1 light
notes: heterodimerized; also called He Ab H268_05P
B29: GpH7-A5/GpH7-B3 variant E269_15Y/GpL16-k0 (antibody, human IgG1, kappa)
heavy 1: not shown
heavy 2: not shown
light: B1 light
notes: heterodimerized; also called He Ab E269_15Y
B30: GpH7-A5/GpH7-B3 variant K326_12R/GpL16-k0 (antibody, human IgG1, kappa)
heavy 1: not shown
heavy 2: not shown
light: B1 light
notes: heterodimerized; also called He Ab K326_12R
B31: GpH7-A5/GpH7-B3 variant L328_03V/GpL16-k0 (antibody, human IgG1, kappa)
heavy 1: not shown
heavy 2: not shown
light: B1 light
notes: heterodimerized; also called He Ab L328_03V

Biological target: T1, FcγRIa (human, UniProt P12314 16-292)
T1 construct: extracellular domain; also called FcgRI; CD64
T1 sequence (P12314 16-292): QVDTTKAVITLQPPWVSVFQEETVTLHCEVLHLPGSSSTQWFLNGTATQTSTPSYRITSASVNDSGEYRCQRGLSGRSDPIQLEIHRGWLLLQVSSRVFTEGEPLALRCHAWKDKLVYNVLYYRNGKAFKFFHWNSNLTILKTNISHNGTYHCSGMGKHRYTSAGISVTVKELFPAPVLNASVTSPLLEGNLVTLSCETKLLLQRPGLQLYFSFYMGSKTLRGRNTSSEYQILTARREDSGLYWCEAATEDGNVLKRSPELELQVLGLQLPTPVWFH
Assay: SPR; vs GpH7-A5/GpH7-B3/GpL16-k0=100

Binder	He/Con_1a
B1	106 % of control
B2	106 % of control
B3	108 % of control
B4	105 % of control
B5	102 % of control
B6	105 % of control
B7	103 % of control
B8	100 % of control
B9	105 % of control
B10	104 % of control
B11	101 % of control
B12	108 % of control
B13	108 % of control
B14	105 % of control
B15	107 % of control
B16	106 % of control

Binder	He/Con_1a
B17	104 % of control
B18	106 % of control
B19	100 % of control
B20	104 % of control
B21	101 % of control
B22	106 % of control
B23	104 % of control
B24	102 % of control
B25	103 % of control
B26	107 % of control
B27	102 % of control
B28	109 % of control
B29	106 % of control
B30	100 % of control
B31	101 % of control
